From the supplement of paper PMC9112550, “Optimization of the antimicrobial peptide Bac7 by deep mutational scanning” (BMC Biology, 2022)

Each sequence was assayed on Escherichia coli TOP10 (assay: shrunken log2 fold change of peptide-encoding DNA abundance (4.5 h post-induction vs induction); higher = less antimicrobial activity (less host growth inhibition)). Details: time post-induction: 4.5 h; library: site-saturation at positions 5, 18, 19, 20.
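Also: peptides expressed intracellularly from a pBAD plasmid library in pooled LB shake-flask culture, induced with 0.3% L-arabinose, DNA abundance read by NGS, three biological replicates, DESeq2 with apeglm shrinkage.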

Sequence	shrunken log2 fold change
RRIRDRPPRLPRPRPRPVTQPRP	-0.0479
RRIRNRPPRLPRPRPRPINGPRP	-0.262
RRIRSRPPRLPRPRPRPIKAPRP	0.0326
RRIRYRPPRLPRPRPRPWCCPRP	-0.207
RRIRYRPPRLPRPRPRPTLMPRP	-0.301
RRIRLRPPRLPRPRPRPAEQPRP	0.0174
RRIRDRPPRLPRPRPRPQILPRP	0.132
RRIRLRPPRLPRPRPRPRTCPRP	-0.258
RRIRTRPPRLPRPRPRPDAHPRP	0.128
RRIRCRPPRLPRPRPRPFPPPRP	0.0149
RRIRFRPPRLPRPRPRPVNWPRP	0.253
RRIRIRPPRLPRPRPRPCYPPRP	-0.428
RRIRQRPPRLPRPRPRPYYWPRP	0.0316
RRIRQRPPRLPRPRPRPRWKPRP	0.552
RRIRPRPPRLPRPRPRPISWPRP	-0.00365
RRIRTRPPRLPRPRPRPAIAPRP	0.101
RRIRHRPPRLPRPRPRPPLAPRP	0.378
RRIRDRPPRLPRPRPRPETTPRP	0.0986
RRIRTRPPRLPRPRPRPNSDPRP	-0.0311
RRIRARPPRLPRPRPRPVPMPRP	0.404
RRIRYRPPRLPRPRPRPMSGPRP	-0.748
RRIRRRPPRLPRPRPRPTYNPRP	-0.267
RRIRARPPRLPRPRPRPFVGPRP	-0.0485
RRIRTRPPRLPRPRPRPPCTPRP	-0.0757
RRIRQRPPRLPRPRPRPPEGPRP	0.228

Sequence	shrunken log2 fold change
RRIRARPPRLPRPRPRPIVGPRP	-0.0201
RRIRERPPRLPRPRPRPQLIPRP	-0.759
RRIRRRPPRLPRPRPRPDMDPRP	-0.108
RRIRGRPPRLPRPRPRPIGAPRP	0.251
RRIRWRPPRLPRPRPRPWVMPRP	-0.129
RRIRRRPPRLPRPRPRPAYHPRP	0.0468
RRIRPRPPRLPRPRPRPQHLPRP	-0.172
RRIRVRPPRLPRPRPRPNWSPRP	-0.114
RRIRSRPPRLPRPRPRPLFFPRP	-0.172
RRIRSRPPRLPRPRPRPICEPRP	0.0675
RRIRERPPRLPRPRPRPLNAPRP	-0.113
RRIRKRPPRLPRPRPRPRTMPRP	0.179
RRIRKRPPRLPRPRPRPSKHPRP	0.0908
RRIRYRPPRLPRPRPRPTWCPRP	-0.544
RRIRARPPRLPRPRPRPCQVPRP	-0.47
RRIRSRPPRLPRPRPRPHKMPRP	-0.156
RRIRMRPPRLPRPRPRPYNYPRP	-0.2
RRIRHRPPRLPRPRPRPNPQPRP	-0.00216
RRIRCRPPRLPRPRPRPEQTPRP	0.0662
RRIRCRPPRLPRPRPRPAYIPRP	-0.628
RRIRKRPPRLPRPRPRPWMPPRP	0.0548
RRIRCRPPRLPRPRPRPFIPPRP	-0.976
RRIRVRPPRLPRPRPRPMTGPRP	-0.0967
RRIRPRPPRLPRPRPRPMFYPRP	-0.449
RRIRGRPPRLPRPRPRPGCHPRP	0.549

Sequence	shrunken log2 fold change
RRIRQRPPRLPRPRPRPQWIPRP	-0.0848
RRIRIRPPRLPRPRPRPMLYPRP	-0.33
RRIRSRPPRLPRPRPRPVQQPRP	-0.00468
RRIRMRPPRLPRPRPRPEILPRP	0.121
RRIRSRPPRLPRPRPRPRHKPRP	-0.262
RRIRERPPRLPRPRPRPKDEPRP	-0.379
RRIRCRPPRLPRPRPRPAQWPRP	0.696
RRIRKRPPRLPRPRPRPNKSPRP	0.0234
RRIRGRPPRLPRPRPRPWYEPRP	-0.14
RRIRQRPPRLPRPRPRPGKCPRP	0.0125
RRIRRRPPRLPRPRPRPWLQPRP	0.0763
RRIRIRPPRLPRPRPRPPRSPRP	0.272
RRIRKRPPRLPRPRPRPAFKPRP	-0.0132
RRIRPRPPRLPRPRPRPCTSPRP	-0.0721
RRIRLRPPRLPRPRPRPAQKPRP	0.37
RRIRGRPPRLPRPRPRPENQPRP	0.534
RRIRLRPPRLPRPRPRPFGHPRP	-0.177
RRIRARPPRLPRPRPRPDMHPRP	-0.00915
RRIRERPPRLPRPRPRPIAKPRP	0.0393
RRIRLRPPRLPRPRPRPDSPPRP	-0.119
RRIRKRPPRLPRPRPRPNVIPRP	0.0501
RRIRWRPPRLPRPRPRPKWRPRP	0.428
RRIRLRPPRLPRPRPRPSISPRP	-0.655
RRIRERPPRLPRPRPRPNMAPRP	-0.163
RRIRSRPPRLPRPRPRPHFYPRP	0.166
